# Experimental data: paper PMC8699718, “A structurally conserved site in AUP1 binds the E2 enzyme UBE2G2 and is essential for ER-associated degradation” (PLoS Biology, 2021)
# T1: UBE2G2:G2BR^AUP1 complex (UniProt P60604 1-165, ^15N-labeled)
# T1 construct: UBE2G2, as m15; AUP1 G2BR, residues 378-404, as m16; Complex formed before titration with the gp78 RING; also called G2BR^AUP1:UBE2G2
# T1 sequence 1: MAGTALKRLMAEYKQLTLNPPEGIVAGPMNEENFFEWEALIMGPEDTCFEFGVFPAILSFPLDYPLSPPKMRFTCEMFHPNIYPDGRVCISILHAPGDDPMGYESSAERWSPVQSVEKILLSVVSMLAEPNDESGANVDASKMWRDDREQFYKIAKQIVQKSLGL
# T1 sequence 2: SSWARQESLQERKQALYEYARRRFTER
# T2: UBE2G2:G2BR^gp78 complex (UniProt P60604 1-165, ^15N-labeled)
# T2 construct: UBE2G2, as m15; N-terminal Trp residue added for peptide quantification, as m17; gp78 G2BR, residues 574-600, as m17; Complex formed before titration with the gp78 RING; also called G2BR^gp78:UBE2G2
# T2 sequence 1: T1 sequence 1
# T2 sequence 2: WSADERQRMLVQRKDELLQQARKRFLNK
# T3: purified UBE2G2 (UniProt P60604 1-165, ^15N-labeled for NMR)
# T3 construct: UBE2G2, purified recombinant protein used for ITC, FP, MST and NMR; also called apo-UBE2G2; ^15N-labeled UBE2G2
# T3 sequence (looked up): T1 sequence 1
# T4: UBE2G2 (Homo sapiens, UniProt P60604)
# T4 construct: made in house
# T4 sequence (P60604 1-165): T1 sequence 1
# B1: gp78 RING domain (domain or fragment, UniProt Q9UKV5 313-393, looked up)
# chain: KNYLRVVGNMEARFAVATPEELAVNNDDCAICWDSMQAARKLPCGHLFHNSCLRSWLEQDTSCPTCRMSLNIADNNRVREE
# notes: gp78 (aka AMFR or RNF45), RING domain; the limits 313-393 are those of the only gp78-RING construct that the methods name; also called gp78-RING construct (aa 313 to 393)
# B2: GST fusion of AUP1: GST fusion of AUP1 that includes the G2BR (protein)
# chain: SPDVQLATLAQRVKEVLPHVPLGVIQRDLAKTGCVDLTITNLLEGAVAFMPEDITKGTQSLPTASASKFPSSGPVTPQPTALTFAKSSWARQESLQERKQALYEYARRRFTERRAQEAD
# modifications: left off: GST, end not stated, kept
# notes: GST fusion of AUP1 that includes the G2BR
# How the values were obtained:
# UBE2G2 [1] = assay: CHX chase: UBE2G2 turnover in HT1080 AUP1 KO cells; type: cell-based, human; details: GFP fusion transfected with MYC-UBE2G2, HT1080 AUP1 KO, compared with GFP-SCR
# Experimental: Fig 7 G2BR^AUP1 protects UBE2G2 from degradation. (A) Indicated cells were assessed for steady state levels and turnover of endogenous UBE2G2 by CHX chase. (B) Transcript levels of endogenous UBE2G2 in AUP1 KO cells compared to HT1080 as determined by qPCR. Mean and standard deviation from three independent experiments is shown. […] (D) AUP1 KO cells were transfected with plasmids encoding MYC-UBE2G2 and GFP fusions of either a scrambled G2BR (SCR), G2BR^gp78, or G2BR^AUP1, and the turnover of UBE2G2 was assessed. (E) Relative abundance of gp78 (left panel) and AUP1 (right panel) in HT1080 cells was determined by resolving indicated amounts (in pmoles) of purified GST-gp78 (aa 429 to 611) or GST-AUP1 (aa 61 to 410) fusions alongside approximately 1 × 10^4 cellular equivalents of cell lysate and immunoblotting with gp78 or AUP1 antibodies. For each antibody, the amount of immunoreactivity in the lysate was compared to a defined quantity of a GST fusion protein of gp78 or AUP1 spanning the epitope recognized by the probing antibody. […] The data underlying this figure can be found in S1 and S8 Data. aa, amino acid; AUP1, ancient ubiquitous protein 1; CHX, cycloheximide; G2BR, UBE2G2 Binding Region; KO, knockout; qPCR, quantitative polymerase chain reaction; WT, wild type. […]
# UBE2G2:G2BR^AUP1 complex = molecular target: T1, UBE2G2:G2BR^AUP1 complex; assay: NMR titration; ^1H-^15N HSQC of ^15N-labeled UBE2G2 at 150 μM, alone or bound to G2BR peptide, titrated with gp78 RING 0 to 450 μM; chemical shift perturbations fitted; 50 mM Tris-Cl pH 7.0, 0.5 mM TCEP, 100 μM zinc sulfate; details: both partners purified
# UBE2G2:G2BR^gp78 complex = molecular target: T2, UBE2G2:G2BR^gp78 complex; assay: as above; details: both partners purified
# purified UBE2G2 = molecular target: T3, purified UBE2G2; assay: as above; details: both partners purified
# UBE2J1/UBC6e = assay: GST pulldown of in vitro translated 35S-UBE2J1; type: binding; details: GST-AUP1 aa 292 to 410, overnight 4°C, pH 7.4
# Experimental: (§1) Fig 3 The AUP1–UBE2G2 interaction is required for ERAD. (A) Equimolar amounts of GST-AUP1 (aa 292 to 410) or GST were immobilized on glutathione beads and binding to the indicated in vitro translated ^35S-labeled E2s was assessed. Left panel is 5% of input used for binding. E2s are referred to by their unique alpha-numeric designation (e.g., UBE2G1 and UBE2J1). (B) HT1080 or UBE2G2 KO cells were transfected with INSIG-1-MYC and degradation assessed by CHX chase. […] (D) Cells were transfected with NHK-MYC and HA-ubiquitin and ubiquitination of NHK assessed following proteasome inhibition and IP (right panel). Left panel is 10% of total cell lysate used for IP, indicating no discernable change in total ubiquitination. (E) Levels of endogenous HRD1 were monitored by CHX chase in the indicated cell types. (F) Ubiquitination of endogenous HRD1 was assessed following IP with HRD1 antiserum. Arrow in upper panel indicates migration of unmodified HRD1. Control immunoprecipitates using rabbit serum are shown for comparison. […]
# (§2) In vitro translated ^35S methionine-labeled E2s were generated using the E. coli T7-S30 Extract System (Promega) and excess ^35S methionine was removed by desalting twice with Zeba Spin Desalting Columns (Thermo Scientific). GST fusion proteins were quantified by Coomassie blue staining. […] Binding was quantified using ImageQuant Software.
# UBE2D3/UBCH5C = assay: GST pulldown of in vitro translated 35S-UBE2D3; type: binding; details: GST-AUP1 aa 292 to 410, overnight 4°C, pH 7.4
# Experimental: as §1, §2
# UBE2D2/UBCH5B = assay: GST pulldown of in vitro translated 35S-UBE2D2; type: binding; details: GST-AUP1 aa 292 to 410, overnight 4°C, pH 7.4
# Experimental: as §1, §2
# UBE2G1 = assay: GST pulldown of in vitro translated 35S-UBE2G1; type: binding; details: GST-AUP1 aa 292 to 410, overnight 4°C, pH 7.4
# Experimental: as §1, §2
# UBE2G2 [2] = molecular target: T4, UBE2G2; assay: GST pulldown of in vitro translated 35S-UBE2G2; type: binding; details: GST-AUP1 aa 292 to 410 on glutathione beads, ~3 pmol GST fusion, ~0.2 pmol E2, overnight 4°C, pH 7.4
# Experimental: Fig 3 The AUP1–UBE2G2 interaction is required for ERAD. (A) Equimolar amounts of GST-AUP1 (aa 292 to 410) or GST were immobilized on glutathione beads and binding to the indicated in vitro translated ^35S-labeled E2s was assessed. Left panel is 5% of input used for binding. E2s are referred to by their unique alpha-numeric designation (e.g., UBE2G1 and UBE2J1). (B) HT1080 or UBE2G2 KO cells were transfected with INSIG-1-MYC and degradation assessed by CHX chase. […] (D) Cells were transfected with NHK-MYC and HA-ubiquitin and ubiquitination of NHK assessed following proteasome inhibition and IP (right panel). Left panel is 10% of total cell lysate used for IP, indicating no discernable change in total ubiquitination. (E) Levels of endogenous HRD1 were monitored by CHX chase in the indicated cell types. (F) Ubiquitination of endogenous HRD1 was assessed following IP with HRD1 antiserum. Arrow in upper panel indicates migration of unmodified HRD1. Control immunoprecipitates using rabbit serum are shown for comparison. The data underlying this figure can be found in S1 Data. aa, amino acid; AUP1, ancient ubiquitous protein 1; CHX, cycloheximide; ERAD, endoplasmic reticulum–associated degradation; IP, immunoprecipitation; KO, knockout; WT, wild type.
# Fig 6 Disruption of UBE2G2:G2BR^AUP1 interaction abrogates AUP1 function in cells. (A) GST or indicated GST-AUP1 fusions (aa 292 to 410, expression shown in Coomassie-stained gel) were immobilized on glutathione beads and binding to ^35S-UBE2G2 was assessed as in Fig 3A. Mutations include 2A (R382A/Q383A), 2E (R382E/Q383E), and 5E (R382E/Q383E/K390E/R398E/R400E). (B) AUP1 KO cells were transfected with NHK-HA and forms of full-length AUP1-FLAG with the indicated point mutations from (A) and NHK degradation assessed by CHX chase. (C) Binding assay performed as in (A) with AUP1 mutants predicted to disrupt hydrophobic interactions with UBE2G2. (D) Cellular assay performed as in (B) with AUP1-FLAG mutants that disrupt interactions with UBE2G2 in vitro in (C). The data underlying this figure can be found in S1 Data. aa, amino acid; AUP1, ancient ubiquitous protein 1; CHX, cycloheximide; G2BR, UBE2G2 Binding Region; KO, knockout; WT, wild type.
# In vitro translated ^35S methionine-labeled E2s were generated using the E. coli T7-S30 Extract System (Promega) and excess ^35S methionine was removed by desalting twice with Zeba Spin Desalting Columns (Thermo Scientific). GST fusion proteins were quantified by Coomassie blue staining. Moreover, 0.1 μg of GST fusion protein (approximately 3 pmol) was prebound to GS 4B (GE Healthcare) and then incubated with approximately 10^5 cpm of ^35S methionine-labeled E2 (approximately 0.2 pmol) in 200 μl Binding Buffer (25 mM Tris-HCl, pH 7.4, 50 mM NaCl, 5 mM DTT, 0.5% IGEPAL CA-630) overnight at 4°C. Beads were extensively washed in Binding Buffer, resolved on Bis/Tris polyacrylamide gels under reducing conditions, dried and visualized on a Typhoon FLA 7000 (GE Healthcare). Binding was quantified using ImageQuant Software.
molecule,measurement,setting,value
GFP-G2BR^gp78: GFP fusion of gp78 aa 574 to 600,UBE2G2 degradation and steady state level,UBE2G2 [1],protected UBE2G2 from degradation and increased the steady state level of this E2
B1,Kd,UBE2G2:G2BR^AUP1 complex,22.5 µM
same,Kd,UBE2G2:G2BR^gp78 complex,20.3 µM
same,Kd,purified UBE2G2,207 ± 6.4 µM
B2,binding to UBE2J1,UBE2J1/UBC6e,failed to show detectable binding
same,binding to UBE2D3,UBE2D3/UBCH5C,no discernable binding
same,binding to UBE2D2,UBE2D2/UBCH5B,no discernable binding
same,binding to UBE2G1,UBE2G1,not UBE2G1
same,binding to UBE2G2,UBE2G2 [2],bound UBE2G2
